The results in this text go back to PMC11798926.

B1: myc-tagged SynDIG4 (wild type) [rat] / HA-tagged μ2 AP subunit [not stated] (parent)
chain 1: MSSEKSGLPDSVPHTSPPPYNAPQPPAEPPIPPPQTAPSSHHHHHHHYHQSGTATLPRLGAGGLASAAAGAQRGPSSSATLPRPPHHAPPGPAAGAPPPGCATLPRMPPDPYLQETRFEGPLPPPPPAAAAPPPPAPAPTAQAPGFVVPTHAGAVGTLPLGGYVAPGYPLQLQPCTAYVPVYPVGTPYASGTPGGPGVTSTLPPPPQGPGLALLEPRRPPHDYMPIAVLTTICCFWPTGIIAIFKAVQVRTALARGDLVSAEIASREARNFSFISLAVGIAAMVLCTILTVVIIIAAQHHENYWDP
chain 2: MIGGLFIYNHKGEVLISRVYRDDIGRNAVDAFRVNVIHARQQVRSPVTNIARTSFFHVKRSNIWLAAVTKQNVNAAMVFEFLYKMCDVMAAYFGKISEENIKNNFVLIYELLDEILDFGYPQNSETGALKTFITQQGIKSQHQTKEEQSQITSQVTGQIGWRREGIKYRRNELFLDVLESVNLLMSPQGQVLSAHVSGRVVMKSYLSGMPECKFGMNDKIVIEKQGKGTADETSKSGKQSIAIDDCTFHQCVRLSKFDSERSISFIPPDGEFELMRYRTTKDIILPFRVIPLVREVGRTKLEVKVVIKSNFKPSLLAQKIEVRIPTPLNTSGVQVICMKGKAKYKASENAIVWKIKRMAGMKESQISAEIELLPTNDKKKWARPPISMNFEVPFAPSGLKVRYLKVFEPKLNYSDHDVIKWVRYIGRSGIYETRC

Variants of B1 are the subject of the first experiment. Put plainly: co-immunoprecipitation (IP: HA, blot: myc), quantified. Conditions: with HA-tagged μ2 AP subunit; HEK293T cells; first bar chart of panel D (SD4 vs AVPA); parent: 100; read off a plot.
With chain 1 Y178A V181A, the percent of parent is 45 %SD4.

The same experiment, now with this note: with HA-tagged μ2 AP subunit; HEK293T cells; third bar chart of panel D (SD4 vs AVPA vs ∆170-89); marked ns; parent: 100; read off a plot.
With chain 1 Y178A V181A, the percent of parent stood at 55 %SD4.
